Results as given in IntAct's records for PubMed 15086341.

B1: Lysine-specific demethylase hairless (Mus musculus), Q61645 (parent)
chain: MESMPSFLKDTPAWEKTAPVNGIVGQEPGTSPQDGLRHGALCLGEPAPFWRGVLSTPDSWLPPGFLQGPKDTLSLVEGEGPRNGERKGSWLGGKEGLRWKEAMLAHPLAFCGPACPPRYGPLIPEHSGGHPKSDPVAFRPLHCPFLLETKILERAPFWVPTCLPPYLMSSLPPERPYDWPLAPNPWVYSGSQPKVPSAFGLGSKGFYHKDPNILRPAKEPLAESGMLGLAPGGHLQQACESEGPSLHQRDGETGAGRQQNLCPVFLGYPDTVPRAPWPSCPPGLVHSLGNIWAGPGSNSLGYQLGPPATPRCPSPGPPTPPGGCCSSHLPAREGDLGPCRKCQDSPEGGSSGPGESSEERNKADSRACPPSHHTKLKKTWLTRHSEQFECPGGCSGKEESPATGLRALKRAGSPEVQGASRGPAPKRPSHPFPGTGRQGARAWQETPETIIGSKAEAEQQEEQRGPRDGRIRLQESRLVDTSCQHHLAGVTQCQSCVQAAGEVGVLTGHSQKSRRSPLEEKQLEEEDSSATSEEGGGGPGPEASLNKGLAKHLLSGLGDRLCRLLRKEREALAWAQREGQGPAMTEDSPGIPHCCSRCHHGLFNTHWRCSHCSHRLCVACGRIAGAGKNREKTGSQEQHTDDCAQEAGHAACSLILTQFVSSQALAELSTVMHQVWAKFDIRGHCFCQVDARVWAPGDGGQQKEPTEKTPPTPQPSCNGDSNRTKDIKEETPDSTESPAEDGAGRSPLPCPSLCELLASTAVKLCLGHDRIHMAFAPVTPALPSDDRITNILDSIIAQVVERKIQEKALGPGLRAGSGLRKGLSLPLSPVRTRLSPPGALLWLQEPRPKHGFHLFQEHWRQGQPVLVSGIQKTLRLSLWGMEALGTLGGQVQTLTALGPPQPTNLDSTAFWEGFSHPETRPKLDEGSVLLLHRTLGDKDASRVQNLASSLPLPEYCAHQGKLNLASYLPLGLTLHPLEPQLWAAYGVNSHRGHLGTKNLCVEVSDLISILVHAEAQLPPWYRAQKDFLSGLDGEGLWSPGSQTSTVWHVFRAQDAQRIRRFLQMVCPAGAGTLEPGAPGSCYLDAGLRRRLREEWGVSCWTLLQAPGEAVLVPAGAPHQVQGLVSTISVTQHFLSPETSALSAQLYHQGASLPPDHRMLYAQMDRAVFQAVKAAVGALQEAK

Variants of: B1
Settings: with Thrb

effect of a mutation on the interaction | Variant
with no effect | D1005N
